# In patent publication US20220402989A1:
# Read-outs that look alike come from different tables or passages of the source.
# Tests used:
# [1] = target: IL2Rα/β/γ receptor (high affinity IL2 receptor) on YT/STAT5-Luc cells expressing endogenous or over-expressed human IL2Rα (human) (UniProt P01589); experiment: cell-based or functional assay
# [2] = target: IL2Rβ/γ receptor (low/medium affinity IL2 receptor) on YT/STAT5-Luc cells with IL2Rα knocked out (human) (UniProt P14784); experiment: cell-based or functional assay
# [3] = target: human PD1 (amino acids M1-L288 of NP_005009.2 with a 2Q=>E mutation) stably expressed on engineered reporter cells (human) (UniProt Q15116); experiment: cell-based or functional assay
# [4] = target: IL2Rα/β/γ receptor (high affinity IL2 receptor) on YT/STAT5-Luc cells expressing endogenous or over-expressed human IL2Rα (human) (UniProt P01589); experiment: cell-based or functional assay; remark: listed apart in the source
# [5] = target: IL2Rβ/γ receptor (low/medium affinity IL2 receptor) on YT/STAT5-Luc cells with IL2Rα knocked out (human) (UniProt P14784); experiment: cell-based or functional assay; remark: listed apart in the source
# [6] = target: IL2Rβ/γ receptor (low/medium affinity IL2 receptor) on YT/STAT5-Luc cells with IL2Rα knocked out (human) (UniProt P14784); experiment: flow cytometry, YT/STAT5-Luc CD25 KO/PD1 OE cells, AF647 anti-human IgG secondary
# [7] = target: IL2Rα/β/γ receptor (high affinity IL2 receptor) on YT/STAT5-Luc cells expressing endogenous or over-expressed human IL2Rα (human) (UniProt P01589); experiment: flow cytometry, YT/STAT5-Luc CD25 OE/PD1 OE cells, AF647 anti-human IgG secondary
# [8] = target: IL2Rα/β/γ receptor (high affinity IL2 receptor) on YT/STAT5-Luc cells expressing endogenous or over-expressed human IL2Rα (human) (UniProt P01589); experiment: flow cytometry on YT/STAT5-Luc/IL2Ra OE (CD25 OE/PD1 OE) cells, AF647 anti-human IgG secondary, gMFI on a log axis
Substance,"EC50, STAT5-Luc IL2 reporter assay, YT/Stat5-Luc/hIL2Rα [1] [nM]","EC50, STAT5-Luc IL2 reporter assay, YT/Stat5-Luc/hIL2Rα/hPD1 [1] [nM]","Fold induction, STAT5-Luc IL2 reporter assay, YT/Stat5-Luc [1] [fold]","Fold induction, STAT5-Luc IL2 reporter assay, YT/Stat5-Luc/hIL2Rα [1] [fold]","Fold induction, STAT5-Luc IL2 reporter assay, YT/Stat5-Luc/hIL2Rα/hPD1 [1] [fold]","Fold induction, STAT5-Luc IL2 reporter assay, YT/Stat5-Luc/hPD1 [1] [fold]","Fold induction, STAT5-Luc IL2 reporter assay, YT/Stat5-Luc/IL2Rα KO [2] [fold]","Fold induction, STAT5-Luc IL2 reporter assay, YT/Stat5-Luc/IL2Rα KO/hPD1 [2] [fold]","Fold induction, AP1-Luc PD1 antagonistic assay [3] [fold]","EC50 (M), STAT5-Luc IL2 reporter assay, CD25 OE/PD1 OE [1] [M]","Max Fold induction, STAT5-Luc IL2 reporter assay, CD25 OE/PD1 OE [1] [fold]","Max Fold induction, STAT5-Luc IL2 reporter assay, CD25 KO/PD1 OE [2] [fold]",also measured
Isotype control 2 (antibody),–,–,–,–,–,–,–,–,1.2,–,–,–,–
"Isotype control (IL2 reporter assay, Tables 8 and 9) (antibody)",–,–,1.07,1.07,1,1.08,1.12,1.06,–,–,–,–,–
REGN9903 (isotype-IL2Rα-IL2 control),–,–,–,–,–,–,–,–,–,3.31e-10,7,4.37,–
REGN9904 (non-targeted IL2Rα-IL2),1.63,0.971,3.21,4.87,2.77,4.52,2.62,2.59,1.08,–,–,–,"EC50, PD1 competition STAT5-Luc assay, YT/STAT5-Luc/hIL2Rα/hPD1, no antibody ('-') [1]: 0.703 nM; EC50, PD1 competition STAT5-Luc assay, YT/STAT5-Luc/hIL2Rα/hPD1, with Comp 1 [1]: 0.918 nM; EC50, PD1 competition STAT5-Luc assay, YT/STAT5-Luc/hIL2Rα/hPD1, with Comp 2 [1]: 0.938 nM; EC50, PD1 competition STAT5-Luc assay, YT/STAT5-Luc/hIL2Rα/hPD1, with REGN2810 [1]: 0.651 nM; EC50, PD1 competition STAT5-Luc assay, YT/STAT5-Luc/hIL2Rα/hPD1, with isotype control [1]: 0.791 nM; EC50 (M), STAT5-Luc IL2 reporter assay, CD25 OE/PD1 OE [4]: 7.69e-10 M; Max Fold induction, STAT5-Luc IL2 reporter assay, CD25 OE/PD1 OE [4]: 4.57 fold; Max Fold induction, STAT5-Luc IL2 reporter assay, CD25 KO/PD1 OE [5]: 3.24 fold; Fold induction (highest gMFI relative to gMFI without antibody) [6]: 1.7 fold; Max gMFI [6]: 3990 gMFI; Fold induction (highest gMFI relative to gMFI without antibody) [7]: 33.1 fold; Max gMFI [7]: 77600 gMFI; EC50 (read off the curve) [8]: 10 nM"

# More lines, main results first:
"EC50, STAT5-Luc IL2 reporter assay, YT/Stat5-Luc/hIL2Rα [1] [nM]","EC50, STAT5-Luc IL2 reporter assay, YT/Stat5-Luc/hIL2Rα/hPD1 [1] [nM]","Fold induction, STAT5-Luc IL2 reporter assay, YT/Stat5-Luc [1] [fold]","Fold induction, STAT5-Luc IL2 reporter assay, YT/Stat5-Luc/hIL2Rα [1] [fold]","Fold induction, STAT5-Luc IL2 reporter assay, YT/Stat5-Luc/hIL2Rα/hPD1 [1] [fold]","Fold induction, STAT5-Luc IL2 reporter assay, YT/Stat5-Luc/hPD1 [1] [fold]","Fold induction, STAT5-Luc IL2 reporter assay, YT/Stat5-Luc/IL2Rα KO [2] [fold]","Fold induction, STAT5-Luc IL2 reporter assay, YT/Stat5-Luc/IL2Rα KO/hPD1 [2] [fold]","Fold induction, AP1-Luc PD1 antagonistic assay [3] [fold]","EC50 (M), STAT5-Luc IL2 reporter assay, CD25 OE/PD1 OE [1] [M]","Max Fold induction, STAT5-Luc IL2 reporter assay, CD25 OE/PD1 OE [1] [fold]","Max Fold induction, STAT5-Luc IL2 reporter assay, CD25 KO/PD1 OE [2] [fold]",Substance,also measured
0.0241,0.0232,4.96,5.49,3.06,7.97,5.4,3.87,–,–,–,–,IL2-Fc (Fc fusion),"EC50, STAT5-Luc IL2 reporter assay, YT/Stat5-Luc [1]: 0.402 nM; EC50, STAT5-Luc IL2 reporter assay, YT/Stat5-Luc/hPD1 [1]: 0.392 nM; EC50, STAT5-Luc IL2 reporter assay, YT/Stat5-Luc/IL2Rα KO [2]: 1.33 nM; EC50, STAT5-Luc IL2 reporter assay, YT/Stat5-Luc/IL2Rα KO/hPD1 [2]: 0.442 nM"
–,–,–,–,–,–,–,–,1.13,–,–,–,Isotype control 1 (antibody),–
–,–,–,–,–,–,–,–,–,1.41e-09,7.78,1.25,Isotype-IL2-IL2Ra,–
0.848,0.0353,3.29,5.19,2.88,6.39,2.85,3.54,3.04,3.3e-11,7.36,5.72,REGN10597,"EC50, STAT5-Luc IL2 reporter assay, YT/Stat5-Luc/hPD1 [1]: 0.175 nM; EC50 (M), STAT5-Luc IL2 reporter assay, CD25 KO/PD1 OE [2]: 5.78e-11 M; EC50, STAT5-Luc IL2 reporter assay, YT/Stat5-Luc/IL2Rα KO/hPD1 [2]: 0.191 nM; EC50 (M), AP1-Luc PD1 antagonistic assay [3]: 1.26e-08 M; EC50, PD1 competition STAT5-Luc assay, YT/STAT5-Luc/IL2Rα KO/hPD1, no antibody ('-') [3]: 0.129 nM; EC50, PD1 competition STAT5-Luc assay, YT/STAT5-Luc/IL2Rα KO/hPD1, with Comp 1 [3]: 0.306 nM; EC50, PD1 competition STAT5-Luc assay, YT/STAT5-Luc/IL2Rα KO/hPD1, with Comp 2 [3]: 0.281 nM; EC50, PD1 competition STAT5-Luc assay, YT/STAT5-Luc/IL2Rα KO/hPD1, with REGN2810 [3]: 0.222 nM; EC50, PD1 competition STAT5-Luc assay, YT/STAT5-Luc/IL2Rα KO/hPD1, with isotype control [3]: 0.132 nM; EC50, PD1 competition STAT5-Luc assay, YT/STAT5-Luc/hIL2Rα/hPD1, no antibody ('-') [3]: 0.0545 nM; EC50, PD1 competition STAT5-Luc assay, YT/STAT5-Luc/hIL2Rα/hPD1, with Comp 1 [3]: 0.0765 nM; EC50, PD1 competition STAT5-Luc assay, YT/STAT5-Luc/hIL2Rα/hPD1, with Comp 2 [3]: 0.0805 nM; EC50, PD1 competition STAT5-Luc assay, YT/STAT5-Luc/hIL2Rα/hPD1, with REGN2810 [3]: 0.117 nM; EC50, PD1 competition STAT5-Luc assay, YT/STAT5-Luc/hIL2Rα/hPD1, with isotype control [3]: 0.0709 nM; EC50 (M), STAT5-Luc IL2 reporter assay, CD25 OE/PD1 OE [4]: 3.71e-11 M; Max Fold induction, STAT5-Luc IL2 reporter assay, CD25 OE/PD1 OE [4]: 5.1 fold; EC50 (M), STAT5-Luc IL2 reporter assay, CD25 KO/PD1 OE [5]: 8.38e-11 M; Max Fold induction, STAT5-Luc IL2 reporter assay, CD25 KO/PD1 OE [5]: 4.36 fold"
